This note sets out measurements from patent publication US20250313612A1 (Adimab, published 2025).

In test [1] the target is RSV F protein of recombinant mKate-RSV, subtype A (strain A2) (Respiratory syncytial virus subtype A …, UniProt P03420 26-574). Put plainly: cell-based or functional assay.
Test [2] has as its target RSV F protein of recombinant mKate-RSV, subtype B (18537) (Respiratory syncytial virus subtype B …, UniProt P13843 26-574). Put plainly: cell-based or functional assay.
The target in test [3] is T1, RSV F ectodomain stabilized in the postfusion conformation (F ΔFP), subtype A (Respiratory syncytial virus subtype A, UniProt P03420 26-109; P03420 147-524).
T1 construct: extracellular domain; trimer; furin-cleaved; also called Postfusion subtype A
Put plainly: BLI, IgG on AHQ sensor, 100 nM antigen.

Test [4] concerns the target T2, RSV F ectodomain stabilized in the postfusion conformation (F ΔFP), subtype B (Respiratory syncytial virus subtype B, UniProt P13843 26-109; P13843 147-524).
T2 construct: extracellular domain; trimer; also called Postfusion subtype B; postF subtype B
Put plainly: BLI, IgG on AHQ sensor, 100 nM antigen. In general terms: Biolayer interferometry detects binding as a change in optical thickness at a sensor tip.

B1: ADI-14470 (antibody, V domains shown)
VH: QVTLKESGPALVKPTETLTLTCTFSGFSLSTKRLSVSWIRQPPGKALEWLARIDWDDDKSYSTSLRTRLTIAKDTSKNQVVLTMTNMGPADTATYFCVRSSVYASNAYYLYYFDSWGQGTLVTVSS
VL: DIRMTQSPSSLSASVGDRVTITCRASQSIATYLNWYQHKPGKAPTLLIYAASILHSGVPPRFSGRASGTDFTLTISSLQPEDFATYYCQQAYSSPYTFGQGTKVDIK
notes: full-length IgG (yeast-expressed); also called Antibody Number 33; Ab# 33
For the molecule B1, the “Neut IC50 subtype A” value in test [1] is 0.226 µg/mL. Besides, the “Neut IC50 subtype B” value in test [2] was 0.473 µg/mL. In addition, the results for the Kd in test [3] and in test [4] were 358 pM and 314 pM, respectively.

B2: ADI-14466 (antibody, V domains shown)
VH: QVQLVQSGAEAKKPGEPLRISCKGSGYTFSSYWISWVRQRPGERLEWMGRIDPSDSYAYSSPSFQGHVTFSADKSSNTAFLQWSSLQASDTAIYYCARHKENYDFWDFWGQGTMVTVSS
VL: ETTLTQSPDSLAVSLGERATINCRSSQPILFNPINKLSLAWYQLKPGQPPKLLISWASTREPGVPDRFNGSGSGTVFTLTISSLQPEDVAVYVCQQYFTSTFFGPGTKVEIK
notes: full-length IgG (yeast-expressed); also called Antibody Number 29; Ab# 29
In the case of B2, the “Neut IC50 subtype A” value in test [1] was 0.144 µg/mL. Also, the “Neut IC50 subtype B” value in test [2] is 0.263 µg/mL. For the same molecule, the Kd came out at 247 pM in test [3] and 169 pM in test [4].

B3: ADI-14453 (antibody, V domains shown)
VH: QITLKESGPTVVKPTQTLTLTCTFSGFSLNTRGMGVAWIRQPPGGALEWLALVDWDDDKRYSPSLRSRLTITKDTSKNQVLFTMTTMDPADTATYYCAHIGLYDRGGYYLFYFDFWGQGTLVTVSS
VL: DIVLTQSPSSLSASVGDRVTITCRASQSIASYVNWFQQKPGKAPVLLMFASSILQSGVPPRFRGSGSGTDFTLTITSLQPEDFATYYCQHTYTTPYIFGRGTKVEIK
notes: full-length IgG (yeast-expressed); also called Antibody Number 16; Ab# 16
Turning to B3, the “Neut IC50 subtype A” value in test [1] was over 10 µg/mL. In addition, the “Neut IC50 subtype B” value in test [2] is over 10 µg/mL. In addition, the dissociation constant (Kd) in test [3] was found to be 261 pM; in test [4], 228 pM.

B4: ADI-14475 (antibody, V domains shown)
VH: QVQLVQSGPALVKPTQTLTLTCTFSGFSLTTARMCVSWIRQPPGKALEWLARIDWDDDKSYSTSLKTRLTIAKDTSKNQVVLTMTNMGPADTATYYCVRTPIYASGGYYLSYFDSWGQGTLVTVSS
VL: DIVMTQSPSSLSASVGDSVTITCRASQTIASYVNWYQHKPGQAPNLLIYAASILHSGVPSRFRGGGSGTDFTLTINSLQPEDFATYYCQQSYSTPYTFGQGTKVDIK
notes: full-length IgG (yeast-expressed); also called Antibody Number 37; Ab# 37
In the case of B4, the “Neut IC50 subtype A” value in test [1] is 0.391 µg/mL. In test [2], the “Neut IC50 subtype B” value turned out to be 0.522 µg/mL. Moreover, the Kd in test [3] worked out at 299 pM; in test [4], 242 pM.

B5: ADI-14459 (antibody, V domains shown)
VH: QVQLVQSGGGLVKPGGSLRLSCAASGFTFSNAWMSWVRQAPGKGLDWVGRIKTKADGGTRDYAAPVKGRFTISRDDSENTLYLQMTSLKTEDTGVYYCSTGPPYKYHDSTGYSVVDYWGQGTLVTVSS
VL: SYELTQPPSASGTPGQRVTISCSGGSSNIGSDYVYWYQQLPGTAPKLLIYGSSQRPSGVPDRFSGSQSGTSASLAISGLRSEDEADYYCAMWDDSLNGPVFGGGTKLTVL
notes: full-length IgG (yeast-expressed); also called Antibody Number 22; Ab# 22
Take B5: the “Neut IC50 subtype A” value in test [1] amounted to 0.396 µg/mL. Besides, the “Neut IC50 subtype B” value in test [2] amounted to 0.753 µg/mL. Besides, the Kd in test [3] worked out at 264 pM; in test [4], 183 pM.

B6: ADI-14458 (antibody, V domains shown)
VH: QVQLVESGGGLVKPGGSLRLSCAASGFIFSNAWMSWVRQSPGKGLEWVGRIKTKTEGATTDHAAPLKGRFTISRDDSRNTLYLQMDSLTTEDTAVYFCTTGPPYSYFDSTGYSIVDYWGQGTLVTVSS
VL: SYELTQPPAASGTPGQRVTISCSGSSSNIGSEYVLWYQQVPGTAPKLLIYNSHQRPSGVPDRISGSRSGTSASLAISGLRSEDEAHYYCASWDDSLSGPVFGGGTQLTVL
notes: full-length IgG (yeast-expressed); also called Antibody Number 21; Ab# 21
As to B6, the “Neut IC50 subtype A” value in test [1] was 0.161 µg/mL. Also, the “Neut IC50 subtype B” value in test [2] is 0.104 µg/mL. Besides, the Kd was 196 pM in test [3] and 126 pM in test [4].

B7: ADI-14440 (antibody, V domains shown)
VH: QVQLVQSGAEVKKPGSSVKVSCKASGGTINNVAISWLRQAPGQGLEWLGGNIPGFGKVRYSQQFETRLTLTADVSSDTAYMVLTSLRSEDTAVYYCAIIDPQLCTRASCFWVNWLDPWGQGTTVTVSS
VL: DIVMTQSPGTLSVSPGESAALSCGASESILSDSLAWYQHKPGQAPRLLIYGASSRAAGIPDRFSGSGSGTDFTLTISRLEPEDFAVYFCQQFGALPITFGQGTRLEIK
notes: full-length IgG (yeast-expressed); also called Antibody Number 3; Ab# 3
In the case of B7, the “Neut IC50 subtype A” value in test [1] is over 10 µg/mL. The “Neut IC50 subtype B” value in test [2] came out at 4.18 µg/mL. For the same molecule, the Kd in test [3] was 1450 pM; in test [4], 2390 pM.

B8: ADI-14476 (antibody, V domains shown)
VH: QVQLVESGPTLVKPTQTLSLTCTFSGFSLTTRGVGVGWIRQPPGKALEWLGFTYWDGDDRYSPSLRNRVSIAKDTSKNQVVLTLTNMDPVDTATYFCVHSDRYDRGGYYLYFFDYWGPGTLVTVSS
VL: DIRVTQSPSSLSASVGDRVSISCRASQTIASYVNWYQQRPGKAPQLLIFAASHLQTGVPSRFSGRGSGTDFTLTITSLQPEDFATYYCQQSYTSPYTFGQGTKVEIK
notes: full-length IgG (yeast-expressed); also called Antibody Number 38; Ab# 38
Take B8: the “Neut IC50 subtype A” value in test [1] was found to be 0.929 µg/mL. In addition, the “Neut IC50 subtype B” value in test [2] turned out to be 2.19 µg/mL. The Kd stood at 827 pM in test [3] and 9120 pM in test [4].

B9: ADI-14468 (antibody, V domains shown)
VH: QVQLVQSGPTLVRPTQTLTLTCTFSGFSLSTRGVGVGWVRQSPGKAPEFLVLAHWDDDKIYSPSLRRRLSVTKDVSKNQVVLALTNVDPVDTGTYFCVKSDLYDRGGYYLYYFDHWGQGTLVTVSS
VL: DIRMTQSPSSLSASVGDRVTITCRASQTIASYVNWYLQRPGEAPKLLIYAASNLHSGAPPSLIGRGSGTDFTLTINTLQPEHFGTYFCQQTFSSPYTFGQGTKVEIK
notes: full-length IgG (yeast-expressed); also called Antibody Number 31; Ab# 31
B9: the “Neut IC50 subtype A” value in test [1] amounted to 0.241 µg/mL. The “Neut IC50 subtype B” value in test [2] was found to be 2.41 µg/mL. Besides, the Kd in test [3] turned out to be 297 pM; in test [4] it was 241 pM.

B10: ADI-14469 (antibody, V domains shown)
VH: QVQLVESGPTLVKPTQTLTLTCTFSGFSLTTRGVGVGWVRQPPGKALEFLGLTHWDDDKIYSPSLRRRLTITKDTSKNQVVLALANVDPVDTATYFCVKSDLYDRGGYYLYYFDYWGQGTLVTVSS
VL: EIVLTQSPSSLSASVGDRVTITCRASQTIPSYVNWYLQRPGEAPKLLIYGASNLHTGAPPTFIGRGSGADFTLTINTLQPEHFGTYYCQQTFSSPYTFGQGTKVEIK
notes: full-length IgG (yeast-expressed); also called Antibody Number 32; Ab# 32
For the molecule B10, in test [1], the “Neut IC50 subtype A” value was determined as 0.05 µg/mL. For the same molecule, the “Neut IC50 subtype B” value in test [2] is 0.013 µg/mL. Further, the Kd in test [3] stood at 301 pM; in test [4] it was 2900 pM.

B11: ADI-14460 (antibody, V domains shown)
VH: QVQLQQWGAGLLKPSETLSLSCTVSGGVFGNYFWSWVRQAPGKGLEWIGEINQIGTTNYSPSASLKSRVTISVDPSRNQFSLSLRSVTAADTARYYCTRSETSDYFDSSGYAFHIWGEGTMVTVSS
VL: LPVLTQPASVSGSPGQSITISCSGISSDGGRYNYVSWYQQHPGKAPKLLIYDDSNWPLGVSHRFSGSKSGNTASLTISGLRAEDEADYYCGSYTDTNRLFGGGTQLTVL
notes: full-length IgG (yeast-expressed); also called Antibody Number 23; Ab# 23
In the case of B11, the “Neut IC50 subtype A” value in test [1] came to 0.102 µg/mL. Besides, in test [2], the “Neut IC50 subtype B” value was determined as 0.239 µg/mL. Besides, the dissociation constant (Kd) in test [3] worked out at 2860 pM; in test [4], 2560 pM.

B12: ADI-14477 (antibody, V domains shown)
VH: EVQLVESGPTLVKPTQTLTLTCSLSGFSLTTRGVGVGWIRQPPGKAPECLGFVYWDDDNRYSPSLRGRLTISKDTSKNQVVLTLTNMDPLDTATYYCVHSDLYDRGGYYLFYFDDWGQGTLVTVSS
VL: DIQVTQSPSSLSASVGDRVTITCRASQPIASYLNWYQQKPGQAPKLLIYAASMLQSGAPSKFSGRGSGTDFTLTITTLQPEDFATYYCQQSYTFPYTFGQGTKVEIK
notes: full-length IgG (yeast-expressed); also called Antibody Number 39; Ab# 39
For the molecule B12, the “Neut IC50 subtype A” value in test [1] is over 10 µg/mL. The “Neut IC50 subtype B” value in test [2] is over 10 µg/mL. Also, the Kd was determined as 361 pM in test [3] and 1220 pM in test [4].

B13: ADI-14454 (antibody, V domains shown)
VH: QVQLVQSGPTLVKPTQTLTLTCTFSGFSLSTRGVGVGWIRQPPGKALECLGFTYWDGDQFHSPSLKNRLTITKDTSKNQVVLRMTNMDPVDTATYFCVHSDLYDSGGYYLYYFDYWGQGTLVTVSS
VL: DIQMTQSPSSLSASVGDRVTITCRASQTIASYLNWYQQRPGEAPKLLIYAASSLQSGVSSRFSGRGSGTDFTLTINILQPEDLATYFCQQAYSAPYTFGQGTKVEIK
notes: full-length IgG (yeast-expressed); also called Antibody Number 17; Ab# 17
With B13, the “Neut IC50 subtype A” value in test [1] amounted to 0.23 µg/mL. Also, the “Neut IC50 subtype B” value in test [2] was 2.54 µg/mL. Besides, the figures for the dissociation constant (Kd) in test [3] and in test [4] were 297 pM and 483 pM, respectively.

B14: ADI-14457 (antibody, V domains shown)
VH: QVTLKESGPALVRPKQTLTLTCSFSGFSLDTQRTGVNWIRQSPGKALEWLARIDWDGNIYSSTSVRTKLSISKGTSKNQVVLTMTDVDPVDTATYYCARTLYYTSGGYYLNLFDYWGQGTLVTVSS
VL: EIVMTQSPPSLSASVGDRVTITCRASQTIPSYVNWYQQISGKAPRLLIYAASLLQSGVPSRFSGSGSGTEFSLTISGLRPEDFGTYYCQQSYSSTPTFGQGTKVEIK
notes: full-length IgG (yeast-expressed); also called Antibody Number 20; Ab# 20
For B14, the “Neut IC50 subtype A” value in test [1] was 0.2 µg/mL. Moreover, in test [2], the “Neut IC50 subtype B” value came to 0.251 µg/mL. The Kd amounted to 380 pM in test [3] and 461 pM in test [4].

B15: ADI-14484 (antibody, V domains shown)
VH: QVTLKESGPALVRPKQTLTLTCSFSGFSLDTQRTGVNWIRQSPGKALEWLARIDWDGNIYSSTSVRTKLSISKGTSKNQVVLTMTDVDPVDTATYYCARTLYYTSGGYYLNLFDYWGQGTLVTVSS
VL: EIVMTQSPPSLSASVGDRVTITCRASQTIPSYVNWYQQISGKAPRLLIYAASLLQSGVPSRFSGSGSGTEFSLTISGLRPEDFGTYYCQQSYSSTPTFGQGTRLEIK
notes: full-length IgG (yeast-expressed); also called Antibody Number 45; Ab# 45
Regarding B15, in test [1], the “Neut IC50 subtype A” value is 0.448 µg/mL. The “Neut IC50 subtype B” value in test [2] worked out at 0.169 µg/mL. The Kd in test [3] stood at 389 pM; in test [4] it was 394 pM.

Broadly, the Kd is a measure of binding affinity in units of concentration. A lower Kd goes with tighter binding.
